Results published in US20230287125A1 (LEPU BIOPHARMA, published 2023).

Experiments:
human PD-L1-Fc protein [1] = biological target: T1, human PD-L1-Fc protein (human, UniProt Q9NZQ7 19-238); assay: ELISA, coated human PD-L1 (PD-L1-Fc per paragraph 110)
T1 construct: coating antigen of the ELISAs; also called rhPD-L1-Fc; not shown: Fc
Protocol: (§1) Briefly, microtiter plates were coated with human PD-L1-Fc protein at 0.5 μg/ml in PBS, 100 μl/well at 4° C. overnight, then blocked with 150 μl/well of 1% BSA. […] The plates were washed with PBS/Tween and then incubated with Mouse-anti-human IgG Fab antibody conjugated with Horse Radish Peroxidase (HRP) for 30 mins at 37° C. After washing, the plates were developed with TMB substrate and analyzed by spectrophotometer at OD 450 nm.
Briefly, microtiter plates were coated with human, mouse, rat and cynomolgus PD-L1 proteins at 0.5 μg/ml in PBS, 100 μl/well at 4° C. overnight, then blocked with 150 μl/well of 1% BSA. Three-fold dilutions of chimeric antibodies starting from 10 μg/ml were added to each well and incubated for 1 hour at 37° C. The plates were washed with PBS/Tween and then incubate with mouse-anti-human IgG Fab antibody conjugated with Horse Radish Peroxidase (HRP) for 30 mins at 37° C. After washing, the plates were developed with TMB substrate and analyzed by spectrophotometer at OD 450 nm.

human PD-L1-Fc protein [2] = biological target: T1, human PD-L1-Fc protein; assay: receptor blocking ELISA: coated human PD-L1-Fc, blocked ligand biotin-labeled human CD80-Fc (Bio-CD80), OD 450nm; middle left panel (with Hu67F3G7-5)
Protocol: as §1, with “BSA at 37° C. for 2 hours.” for “BSA.”, “Streptavidin-HRP” for “Mouse-anti-human IgG Fab antibody conjugated with Horse Radish Peroxidase (HRP)”, “10” for “30”

human PD-L1-Fc protein [3] = biological target: T1, human PD-L1-Fc protein; assay: competition ELISA, coated human PD-L1-Fc, biotin-labeled human PD-1-Fc as competitor
Protocol: as §1, with “Streptavidin-HRP” for “Mouse-anti-human IgG Fab antibody conjugated with Horse Radish Peroxidase (HRP)”, “10” for “30”

mouse PD-L1 protein = mouse PD-L1 protein (mouse, UniProt Q9EP73 19-239); assay: ELISA, coated mouse PD-L1
mouse PD-L1 protein, sequence (Q9EP73 19-239 limits assumed): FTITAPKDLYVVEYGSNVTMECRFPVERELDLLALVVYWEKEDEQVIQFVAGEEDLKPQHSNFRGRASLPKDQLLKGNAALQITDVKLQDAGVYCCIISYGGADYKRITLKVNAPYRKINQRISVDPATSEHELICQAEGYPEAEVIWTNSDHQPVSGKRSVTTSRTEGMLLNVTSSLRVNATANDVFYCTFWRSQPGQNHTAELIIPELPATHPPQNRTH

human PD-L1-Fc protein [4] = biological target: T1, human PD-L1-Fc protein; assay: receptor blocking ELISA: coated human PD-L1-Fc, blocked ligand biotin-labeled human CD80-Fc (Bio-CD80), OD 450nm; upper left panel (with Hu67F3G7-2)
Protocol: as §1, with “BSA at 37° C. for 2 hours.” for “BSA.”, “Streptavidin-HRP” for “Mouse-anti-human IgG Fab antibody conjugated with Horse Radish Peroxidase (HRP)”, “10” for “30”

[5] = biological target: T2, human PD-L1 over-expressed on CHOK1 cells (human, UniProt Q9NZQ7 19-290); assay: flow cytometry (MFI) on PDL1-CHOK1 cells; upper right panel (with the Hu67F3G7 antibodies)
T2 construct: whole, on cells; also called PDL1-CHOK1 cells
T2 sequence (Q9NZQ7 19-290): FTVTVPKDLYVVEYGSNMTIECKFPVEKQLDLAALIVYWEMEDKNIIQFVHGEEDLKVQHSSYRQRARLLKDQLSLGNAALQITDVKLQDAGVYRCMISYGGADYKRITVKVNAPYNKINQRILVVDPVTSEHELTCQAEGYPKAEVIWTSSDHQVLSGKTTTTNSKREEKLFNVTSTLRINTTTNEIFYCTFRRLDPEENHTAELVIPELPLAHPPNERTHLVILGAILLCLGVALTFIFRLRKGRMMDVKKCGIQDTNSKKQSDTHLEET
Protocol: To evaluate the antigen binding property, the humanized antibodies were analyzed for their binding to PD-L1 overexpressed on mammalian cells by FACS. Briefly, PDL1-CHOK1 cells were firstly incubated with 3-fold serious diluted humanized antibodies starting at 15 μg/ml at 4° C. for 40 mins. After washed by PBS, the Alexa Fluor® 647 AffiniPure Goat Anti-Human IgG (H+L) antibody was added to each well and incubated at 4° C. for 30 mins. The MFI of Alexa Fluor® 647 was evaluated by FACSCanto.

T1 sequence (Q9NZQ7 19-238 limits assumed): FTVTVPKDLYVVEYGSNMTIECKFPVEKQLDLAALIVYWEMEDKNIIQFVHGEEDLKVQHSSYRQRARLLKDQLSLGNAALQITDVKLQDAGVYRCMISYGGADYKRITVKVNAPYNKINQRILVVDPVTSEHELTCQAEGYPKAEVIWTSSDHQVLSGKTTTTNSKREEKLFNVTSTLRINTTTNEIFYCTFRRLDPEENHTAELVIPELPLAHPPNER

B1: 67F3G7 chimeric mAb (antibody, V domains shown)
VH: QVKLLQSGAALVKPGASVKMSCKASGYIFTDFWVSWVKQSHEKSLEWIGEIYPNSGVSRYNEKFKGRATMTVDKSTSTAYLELSRLTSEDSAIYYCTKYFGYTYWFGYWGQGTLVTVSS
VL: DTVLTQSPALAVSLGQRITISCRASKSVSTYMHWYQQRSGLQPKLLIYSASHLESGVPSRFSGSGSGTDFTLTIDPVEADDIANYYCQQSNELPVTFGSGTKLEIK
notes: chimeric mAb of the hybridoma clone; also called 67F3G7-chimera
EC50 (human PD-L1-Fc protein [1]): 0.0108 µg/mL | IC50 (human PD-L1-Fc protein [2]): 0.274 µg/mL | IC50 (human PD-L1-Fc protein [3]): 0.14 µg/mL | binding result (mouse PD-L1 protein): no binding (tested: dilutions starting from 10 µg/ml) | IC50 (human PD-L1-Fc protein [4]): 0.256 µg/mL | EC50 [5]: 57.7 pM
